Measured values reported in patent US20250011363A1, “OPTIMIZED SHORTENED PEPTIDE THAT BINDS TO ACETYLCHOLINE RECEPTOR, AND USE THEREOF” (SKINMED CO., LTD., priority 2021, published 2025).

What was measured:
acetylcholine receptor [1] = assay: SPR, AchR immobilized on CM5 chip, peptide at 10 uM
acetylcholine receptor [2] = assay: SPR, receptor immobilized on CM5 chip, peptide 10 uM

Row | Binding affinity (RU) (acetylcholine receptor [1]) | Binding affinity (RU) (acetylcholine receptor [2]) | Binder
1 | – | 142 | RKRRQR [6mer-1-269]
2 | – | 142 | KRQQTR [6mer-1-278]
3 | – | 122 | RRQVSK [6mer-1-271]
4 | – | 148 | KRQRCR [6mer-1-295]
5 | – | 141 | KKGLCR [6mer-1-277]
6 | – | 123 | RKQYCK [6mer-1-303]
7 | – | 145 | KRSRQK [6mer-1-284]
8 | – | 148 | RRWQQK [6mer-1-300]
9 | – | 145 | RRLRYR [6mer-1-279]
10 | – | 123 | KKLYRR [6mer-1-294]
11 | 12 | – | KYDNK [5mer-1048]
12 | – | 154 | KRLLCR [6mer-1-281]
13 | 22 | – | RDCFK [5mer-1044]
14 | 23 | – | KAHMR [5mer-1047]
15 | – | 139 | RRGFSK [6mer-1-297]
16 | – | 153 | RKRYYR [6mer-1-289]
17 | 22 | – | KMDEK [5mer-1045]
18 | – | 139 | RKLISK [6mer-1-286]
19 | – | 122 | RKWQTK [6mer-1-292]
20 | – | 128 | RRVICK [6mer-1-276]
21 | – | 151 | RRGQSR [6mer-1-302]

Row | Binding affinity (RU) (acetylcholine receptor [1]) | Binding affinity (RU) (acetylcholine receptor [2]) | Binder
22 | – | 149 | KRGLRR [6mer-1-270]
23 | – | 136 | RKWLTR [6mer-1-287]
24 | – | 146 | RKQLTK [6mer-1-290]
25 | – | 148 | KKVQQR [6mer-1-288]
26 | – | 121 | RRRRYR [6mer-1-282]
27 | – | 154 | RKRVCK [6mer-1-293]
28 | 19 | – | KHTMR [5mer-1046]
29 | – | 149 | RKLQCK [6mer-1-280]
30 | – | 133 | KKWVQK [6mer-1-283]
31 | – | 135 | KRLLYK [6mer-1-274]
32 | – | 139 | KRWLSK [6mer-1-299]
33 | – | 139 | KKQVSR [6mer-1-272]
34 | – | 122 | KRWVQR [6mer-1-285]
35 | 15 | – | KFEMK [5mer-1043]
36 | – | 121 | RKSIRR [6mer-1-296]
37 | – | 154 | RRSILR [6mer-1-301]
38 | – | 142 | KKQIRK [6mer-1-291]
39 | – | 147 | KKLYCK [6mer-1-298]
40 | – | 123 | RKRVLK [6mer-1-275]
41 | – | 137 | KKQVSK [6mer-1-273]
42 | 28 | – | RCCAK [5mer-1042]

The next lines start with the binder.

Row | Binder | Binding affinity (RU) (acetylcholine receptor [1]) | Binding affinity (RU) (acetylcholine receptor [2])
43 | REWDK [5mer-1033] | 28 | –
44 | KTHMK [5mer-1036] | 23 | –
45 | KYAFR [5mer-743] | 15 | –
46 | RISDK [5mer-1030] | 18 | –
47 | RNSDK [5mer-742] | 11 | –
48 | RMMGK [5mer-740] | 21 | –
49 | KTPMK [5mer-738] | 29 | –
50 | KPTPR [5mer-741] | 14 | –
51 | KDCPR [5mer-739] | 16 | –
52 | RDWFK [5mer-1041] | 27 | –
53 | RFAKK [5mer-1034] | 14 | –
54 | KADIK [5mer-1029] | 25 | –
55 | KFCNK [5mer-730] | 27 | –
56 | KEHVR [5mer-1035] | 19 | –
57 | KMDAR [5mer-727] | 31 | –
58 | KPHIK [5mer-728] | 19 | –
59 | KCCKR [5mer-1038] | 17 | –
60 | RMTVK [5mer-746] | 26 | –
61 | KEPDK [5mer-729] | 23 | –

Row | Binder | Binding affinity (RU) (acetylcholine receptor [1]) | Binding affinity (RU) (acetylcholine receptor [2])
62 | KATER [5mer-734] | 16 | –
63 | KTPWR [5mer-1040] | 17 | –
64 | RMAMR [5mer-1028] | 28 | –
65 | RMEIK [5mer-745] | 14 | –
66 | KNTNR [5mer-1027] | 28 | –
67 | RHCER [5mer-735] | 11 | –
68 | RHHMR [5mer-1032] | 23 | –
69 | KTEAK [5mer-744] | 32 | –
70 | KKDVK [5mer-1039] | 32 | –
71 | KKSFR [5mer-1037] | 28 | –
72 | KTCDR [5mer-733] | 23 | –
73 | RINVR [5mer-737] | 13 | –
74 | RKEER [5mer-1031] | 13 | –
75 | KADHK [5mer-731] | 18 | –
76 | REPMK [5mer-748] | 12 | –
77 | KKHHR [5mer-736] | 24 | –
78 | RKTDK [5mer-747] | 31 | –
79 | KIMWR [5mer-732] | 22 | –
